{"source": "paper PMC12400496", "about": "(Bioscience Reports, 2025)", "key": {"[1]": {"molecular_target": "T1, CtcQ (Kitasatospora aureofaciens, UniProt S4S3E3)", "T1 construct": "full length; crystal: N-terminal His10 tag cut by PreScission protease; reductase assay: C-terminal His6 tag kept; homodimer; primers encode N-terminus MPPEPLS and C-terminus TLAAEG", "assay": "X-ray crystal structure (co-crystal)", "format": "binding", "settings": "co-crystallised with 5 mM NAD and 5 mM FAD, pH 7.5"}, "[2]": {"molecular_target": "T2, CtcP (Kitasatospora aureofaciens, UniProt A0A1E7MYN1)", "T2 construct": "full length, 555 residues; N-terminal His10 tag cut by PreScission protease; expressed in E. coli BL21(DE3); homodimer; primers encode N-terminus MTDTTAD and C-terminus AMRVKP", "assay": "X-ray crystal structure (FAD soak)", "format": "binding", "settings": "chloride ion bound near isoalloxazine ring; soaked with 1 mM FAD, 20 mM NaCl, pH 7.5, 16 h"}, "[3]": {"molecular_target": "T1, CtcQ", "assay": "NADH oxidation, absorbance at […] nm", "format": "biochemical", "settings": "0.1 mM FMN, 1 mM NADH, 1.7 uM CtcQ (C-terminal His6), 20 mM HEPES pH 7.5"}, "[4]": {"molecular_target": "CtcP (1-516), C-terminal truncation mutant lacking the helical hairpin (residues 1-516, P516G) (Kitasatospora aureofaciens)", "assay": "SEC; S-200 column in 40 mM Tris pH 8.0, 100 mM NaCl, 2 mM BME; position of monomeric PltM as marker"}, "[5]": {"molecular_target": "halogenase CtcP from Kitasatospora aureofaciens, full-length (Kitasatospora aureofaciens)", "assay": "SEC; S-200 column in 40 mM Tris pH 8.0, 100 mM NaCl, 2 mM BME; position of monomeric PltM as marker"}, "[6]": {"molecular_target": "halogenase CtcP from Kitasatospora aureofaciens, full-length (Kitasatospora aureofaciens)", "assay": "crystal structure; CtcP in complex with PEG and sulfate; hanging drops, 100 mM HEPES pH 7.0, 1.6 M ammonium sulfate, 2% PEG 400, 21 °C"}, "[7]": {"molecular_target": "halogenase CtcP from Kitasatospora aureofaciens, full-length (Kitasatospora aureofaciens)", "assay": "crystal structure; CtcP in complex with FAD and Cl-; crystals from 0.1 M HEPES pH 7.5, 26% PEG 4000, 0.2 M Li2SO4, 21 °C, soaked with 1 mM FAD for 16 h"}, "[8]": {"molecular_target": "the molecule itself", "assay": "crystal structure; CtcQ in complex with FAD and NAD; hanging drops, 0.1 M Tris pH 7.5, 0.6 M KH2PO4, 0.6 M NaH2PO4, 21 °C, 5 mM NAD and 5 mM FAD"}}}
{"molecule": "Cc1cc2nc3c(=O)[nH]c(=O)nc-3n(C[C@H](O)[C@H](O)[C@H](O)COP(=O)(O)OP(=O)(O)OC[C@H]3O[C@@H](n4cnc5c(N)ncnc54)[C@H](O)[C@@H]3O)c2cc1C", "note": "[FAD]", "values": [{"measurement": "X-ray crystal structure (co-crystal)", "setting": "[1]; flavin subsite, second FAD also in the NAD subsite of most active sites", "value": "determined the crystal structure of CtcQ in complex with FAD and NAD"}, {"measurement": "X-ray crystal structure (FAD soak)", "setting": "[2]", "value": "We obtained crystals of the CtcP-FAD complex by soaking FAD into the CtcP crystals"}]}
{"molecule": "Cc1cc2nc3c(=O)[nH]c(=O)nc-3n(C[C@H](O)[C@H](O)[C@H](O)COP(=O)(O)O)c2cc1C", "note": "[FMN]", "values": [{"measurement": "NADH oxidation, absorbance at 340 nm", "setting": "[3]", "value": "CtcQ, which was highly active with either FAD or FMN as a substrate"}]}
{"molecule": "NC(=O)c1ccc[n+]([C@@H]2O[C@H](COP(=O)(O)OP(=O)(O)OC[C@H]3O[C@@H](n4cnc5c(N)ncnc54)[C@H](O)[C@@H]3O)[C@@H](O)[C@H]2O)c1", "note": "[NAD]", "values": [{"measurement": "X-ray crystal structure (co-crystal)", "setting": "[1]; U-shaped, stacked on FAD, text also calls the bound molecule NADH", "value": "determined the crystal structure of CtcQ in complex with FAD and NAD"}]}
{"molecule": "CtcP (1-516), C-terminal truncation mutant lacking the helical hairpin (residues 1-516, P516G) (domain or fragment)", "values": [{"measurement": "stoichiometry N", "setting": "[4]", "value": 2}]}
{"molecule": "halogenase CtcP from Kitasatospora aureofaciens, full-length (enzyme)", "values": [{"measurement": "stoichiometry N", "setting": "[5]", "value": 2}, {"measurement": "stoichiometry N", "setting": "[6]", "value": 2}, {"measurement": "stoichiometry N", "setting": "[7]", "value": 2}]}
{"molecule": "FAD reductase CtcQ from Kitasatospora aureofaciens (N-terminal tag removed) (enzyme, UniProt S4S3E3 1-191, looked up, a second construct with a C-terminal His6 tag (pET22b) was used only for the reductase activity assay; also called flavin reductase CtcQ; source: E. coli BL21(DE3), purified (Ni2+-chelating chromatography, tag cleavage, S-200 size exclusion); not shown: His10, N-terminal, cleaved) MPPEPLSLPLDLAPGLVDGDTFLSIMGALPTGVTVVTTLGPDGEPYGLTCSAACSVSKAPPLLLVCINRDSRVLKALLERGEFAVNVLRGGGESTSARFAAPVDDRFRDVRWEPGSAGGVPVMSADVVAHAECRVAAALDAGDHTIVIGAVVAGGPRPEVPSPLMYWRRSYARWPVEEDPRTAALTLAAEG", "values": [{"measurement": "stoichiometry N", "setting": "[8]", "value": 2}]}
